Source: PMC11666352

Key:
Test in all cases: stopped-flow fluorescence anisotropy
Conditions in all cases: T17 carries SIMA; Kd: 5 mM Tricine-KOH pH 8.0, 100 mM KCl, 3.4 mM MgCl2, 0.1 mM each dNTP, 0.01% Tween 20, 20 nM hairpin, 55 C (SYTO 13 1/5000 listed in the shared buffer)
Taq pol E507D E507D = Taq pol E507D E507D (UniProt P19821)
[1] = molecular target: Taq pol R573K-D578N R573K;D578N (UniProt P19821)
[2] = molecular target: Taq pol E507K-D732N E507K;D732N (UniProt P19821)
Taq pol I707L I707L = Taq pol I707L I707L (UniProt P19821)
Taq pol M747Q M747Q = Taq pol M747Q M747Q (UniProt P19821)
Taq pol D578K D578K = Taq pol D578K D578K (UniProt P19821)
Taq pol F667A F667A = Taq pol F667A F667A (UniProt P19821)
Taq pol M747D M747D = Taq pol M747D M747D (UniProt P19821)
[3] = molecular target: Taq pol E507K-A570G-M747Q E507K;A570G;M747Q (UniProt P19821)
Taq pol H639A H639A = Taq pol H639A H639A (UniProt P19821)
Taq pol D732N D732N = Taq pol D732N D732N (UniProt P19821)
Taq pol S515F S515F = Taq pol S515F S515F (UniProt P19821)
[4] = molecular target: Taq pol S515N-M747S S515N;M747S (UniProt P19821)
[5] = molecular target: Taq pol E507K-R536K-R660V E507K;R536K;R660V (UniProt P19821)
[6] = molecular target: Taq pol D578S-R728Q-M747V D578S;R728Q;M747V (UniProt P19821)
Taq pol R660V R660V = Taq pol R660V R660V (UniProt P19821)
[7] = molecular target: Taq pol E507K-A570T-M747Q E507K;A570T;M747Q (UniProt P19821)
Taq pol D578W D578W = Taq pol D578W D578W (UniProt P19821)
Taq pol S515D S515D = Taq pol S515D S515D (UniProt P19821)
Taq pol E507Q E507Q = Taq pol E507Q E507Q (UniProt P19821)
Taq pol F667Y F667Y = Taq pol F667Y F667Y (UniProt P19821)
Taq pol S515N S515N = Taq pol S515N S515N (UniProt P19821)
[8] = molecular target: Taq pol E507K-D578E E507K;D578E (UniProt P19821)
Taq pol M747E M747E = Taq pol M747E M747E (UniProt P19821)
[9] = molecular target: Taq pol D578S-R728Q-M747Q D578S;R728Q;M747Q (UniProt P19821)
Taq pol D578N D578N = Taq pol D578N D578N (UniProt P19821)
Taq pol WT = Taq pol WT (UniProt P19821)
Taq pol H639Y H639Y = Taq pol H639Y H639Y (UniProt P19821)
Taq pol F667M F667M = Taq pol F667M F667M (UniProt P19821)
[10] = molecular target: Taq pol D578H-M747Q D578H;M747Q (UniProt P19821)
[11] = molecular target: Taq pol E507Q-D578S-R728Q E507Q;D578S;R728Q (UniProt P19821)
[12] = molecular target: Taq pol F667I-R728N-M747S F667I;R728N;M747S (UniProt P19821)
Taq pol E708D E708D = Taq pol E708D E708D (UniProt P19821)
[13] = molecular target: Taq pol E742K-A743R E742K;A743R (UniProt P19821)
Taq pol E626K E626K = Taq pol E626K E626K (UniProt P19821)
Taq pol H639F H639F = Taq pol H639F H639F (UniProt P19821)
[14] = molecular target: Taq pol E507Q-S515N-D578S E507Q;S515N;D578S (UniProt P19821)
[15] = molecular target: Taq pol V586N-M747T V586N;M747T (UniProt P19821)
[16] = molecular target: Taq pol E507R-R573K-E708Q E507R;R573K;E708Q (UniProt P19821)
Taq pol E507K E507K = Taq pol E507K E507K (UniProt P19821)
[17] = molecular target: Taq pol S515D-K540M S515D;K540M (UniProt P19821)
[18] = molecular target: Taq pol E507Q-D578S-I614M E507Q;D578S;I614M (UniProt P19821)
[19] = molecular target: Taq pol D578N-V783I D578N;V783I (UniProt P19821)
[20] = molecular target: Taq pol E708Q-D732N E708Q;D732N (UniProt P19821)
[21] = molecular target: Taq pol D578Q-D732N D578Q;D732N (UniProt P19821)
Taq pol R660S R660S = Taq pol R660S R660S (UniProt P19821)
Taq pol E708L E708L = Taq pol E708L E708L (UniProt P19821)

With “GCTATGCGTGAGCGCTTTTGCGCTCACGCATAGC [H-Kd hairpin]” the Kd (Taq pol E507D E507D) was 21.4 nM, the Kd [1] was 4.33 nM and the Kd [2] was 1.69 nM. For the same sequence, the Kd (Taq pol I707L I707L) was 8.54 nM, the Kd (Taq pol M747Q M747Q) was 4.41 nM and the Kd (Taq pol D578K D578K) was 4.2 nM. The Kd (Taq pol F667A F667A) was 11.1 nM, the Kd (Taq pol M747D M747D) was 29.6 nM and the Kd [3] was 5.15 nM. It also gave a Kd (Taq pol H639A H639A) of 8.14 nM, a Kd (Taq pol D732N D732N) of 2.6 nM and a Kd (Taq pol S515F S515F) of 211 nM. For the same sequence, the Kd [4] was 1.93 nM, the Kd [5] was 0.79 nM and the Kd [6] was 13.8 nM. The Kd (Taq pol R660V R660V) was 6.21 nM, the Kd [7] was 1.53 nM and the Kd (Taq pol D578W D578W) was 4.99 nM. For the same sequence, the Kd (Taq pol S515D S515D) was 80.7 nM, the Kd (Taq pol E507Q E507Q) was 4.78 nM and the Kd (Taq pol F667Y F667Y) was 11.7 nM. The Kd (Taq pol S515N S515N) was 6.71 nM, the Kd [8] was 1.07 nM and the Kd (Taq pol M747E M747E) was 25.5 nM. The Kd [9] was 10.3 nM, the Kd (Taq pol D578N D578N) was 4.26 nM and the Kd (Taq pol WT) was 6.19 nM. For the same sequence, the Kd (Taq pol H639Y H639Y) was 7.46 nM, the Kd (Taq pol F667M F667M) was 8.79 nM and the Kd [10] was 3.29 nM. The Kd [11] was 6.29 nM, the Kd [12] was 14.4 nM and the Kd (Taq pol E708D E708D) was 4.51 nM. The Kd [13] was 0.51 nM, the Kd (Taq pol E626K E626K) was 5.74 nM and the Kd (Taq pol H639F H639F) was 6.55 nM. The Kd [14] was 2.91 nM, the Kd [15] was 14.1 nM and the Kd [16] was 0.96 nM. The Kd (Taq pol E507K E507K) was 3.38 nM, the Kd [17] was > 200 nM and the Kd [18] was 1.17 nM. It also gave a Kd [19] of 2.19 nM, a Kd [20] of 4.33 nM and a Kd [21] of 0.8 nM. For the same sequence, the Kd (Taq pol R660S R660S) was 10.6 nM and the Kd (Taq pol E708L E708L) was 6.82 nM.
